{
  "source": "paper PMC2861366",
  "assay_in_all_cases": "ITC",
  "key": {"[1]": {"target": "SSB tetramer-(dT)70 1:1 complex (fully wrapped (SSB)65-like) (UniProt P0AGE0)", "sequence (P0AGE0 whole entry, one chain of several)": "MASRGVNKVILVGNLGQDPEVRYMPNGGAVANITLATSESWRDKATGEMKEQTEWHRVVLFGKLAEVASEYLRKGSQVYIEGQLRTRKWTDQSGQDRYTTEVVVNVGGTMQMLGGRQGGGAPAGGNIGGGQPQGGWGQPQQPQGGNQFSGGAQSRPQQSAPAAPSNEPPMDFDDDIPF"}, "[2]": {"target": "P15, SSB C-terminal 15-mer peptide (UniProt P0AGE0)"}, "[3]": {"target": "P9, SSB C-terminal 9-mer peptide (UniProt P0AGE0)", "sequence (P0AGE0 whole entry, looked up, tested part not stated)": "as the sequence (P0AGE0 whole entry, one chain of several) above"}, "[4]": {"target": "SSB (single-stranded DNA binding protein), full length (UniProt P0AGE0)", "sequence (P0AGE0 whole entry)": "as the sequence (P0AGE0 whole entry, one chain of several) above", "conditions": "pH 7.0, 25 °C, 0.2 M NaCl, buffer C: 10 mM cacodylate"}, "[5]": {"target": "SSB tetramer-(dT)70 1:1 complex (fully wrapped (SSB)65-like) (UniProt P0AGE0)", "conditions": "pH 8.1, 25 °C, 20 mM NaCl, buffer H: 10 mM Hepes"}, "[6]": {"conditions": "pH 7.0, 25 °C, 0.2 M NaCl, buffer C: 10 mM cacodylate"}, "[7]": {"conditions": "pH 7.0, 25 °C, 20 mM NaCl, buffer C: 10 mM cacodylate, pH 7.0"}, "[8]": {"conditions": "pH 7.5, 25 °C, 20 mM NaCl, buffer T: 10 mM Tris"}, "[9]": {"conditions": "pH 7.5, 25 °C, 20 mM NaCl, buffer T: 10 mM Tris, pH 7.5"}, "[10]": {"conditions": "pH 7.5, 25 °C, 0.2 M NaCl, buffer T: 10 mM Tris"}, "[11]": {"conditions": "pH 7.0, 25 °C, 200 mM NaCl, buffer C: 10 mM cacodylate, pH 7.0"}},
  "data": [
    {"substance": "χ (chi) subunit of DNA polymerase III holoenzyme (HolC)", "values": [
      {"measurement": "Kobs", "setting": "[1]; [6]", "result": "(5.4±1.0)×10^5 M^−1"},
      {"measurement": "Kobs", "setting": "[1]; [7]", "result": "(7.6±1.6)×10^6 M^−1"},
      {"measurement": "ΔHobs", "setting": "[1]; [7]", "result": -8.7, "unit": "kcal/mol"},
      {"measurement": "Kobs", "setting": "[1]; pH 8.1, 25 °C, 20 mM NaCl, buffer H: 10 mM Hepes", "result": "(5.5±0.8)×10^6 M^−1"},
      {"measurement": "ΔHobs", "setting": "[1]; pH 8.1, 25 °C, 20 mM NaCl, buffer H: 10 mM Hepes, pH 8.1", "result": -8.9, "unit": "kcal/mol"},
      {"measurement": "K (observed association constant)", "setting": "[2]; [7]", "result": "1.5e+06", "unit": "M⁻¹"},
      {"measurement": "ΔH (observed)", "setting": "[2]; [7]", "result": -9.5, "unit": "kcal/mol"},
      {"measurement": "ΔH (observed)", "setting": "[2]; [8]", "result": -7.7, "unit": "kcal/mol"},
      {"measurement": "K (observed association constant)", "setting": "[2]; [9]", "result": 800000, "unit": "M⁻¹"},
      {"measurement": "K (observed association constant)", "setting": "[3]; [7]", "result": "1.6e+06", "unit": "M⁻¹"},
      {"measurement": "ΔH (observed)", "setting": "[3]; [7]", "result": -7.9, "unit": "kcal/mol"},
      {"measurement": "ΔH (observed)", "setting": "[3]; [8]", "result": -8.2, "unit": "kcal/mol"},
      {"measurement": "K (observed association constant)", "setting": "[3]; [9]", "result": 800000, "unit": "M⁻¹"},
      {"measurement": "Kobs", "setting": "[4]", "result": "(3.0±0.7)×10^5 M^−1"},
      {"measurement": "Kobs", "setting": "[5]", "result": "(3.8±0.4)×10^6 M^−1"}
    ]},
    {"substance": "PriA helicase (primosomal protein N')", "values": [
      {"measurement": "Kobs", "setting": "[1]; [6]", "result": "(3.7±0.5)×10^6 M^−1"},
      {"measurement": "ΔHobs", "setting": "[1]; [6]", "result": -18.3, "unit": "kcal/mol"},
      {"measurement": "Kobs", "setting": "[1]; [10]", "result": "(1.9±0.5)×10^6 M^−1"},
      {"measurement": "ΔHobs", "setting": "[1]; [10]", "result": -8.6, "unit": "kcal/mol"},
      {"measurement": "protons absorbed on complex formation", "setting": "[2]; pH 7.0-7.5, 25 °C, 20 mM NaCl, buffer T: 10 mM Tris, pH 7.5", "result": 1, "unit": "protons"},
      {"measurement": "K (observed association constant)", "setting": "[2]; [7]", "result": "2.7e+06", "unit": "M⁻¹"},
      {"measurement": "ΔH (observed)", "setting": "[2]; [7]", "result": -20.7, "unit": "kcal/mol"},
      {"measurement": "K (observed association constant)", "setting": "[2]; [11]", "result": 360000, "unit": "M⁻¹"},
      {"measurement": "K (observed association constant)", "setting": "[2]; [9]", "result": "1.6e+06", "unit": "M⁻¹"},
      {"measurement": "ΔH (observed)", "setting": "[2]; [9]", "result": -7, "unit": "kcal/mol"},
      {"measurement": "K (observed association constant)", "setting": "[3]; [11]", "result": 180000, "unit": "M⁻¹"},
      {"measurement": "K (observed association constant)", "setting": "[3]; [9]", "result": "2e+06", "unit": "M⁻¹"},
      {"measurement": "ΔH (observed)", "setting": "[3]; [9]", "result": -6.7, "unit": "kcal/mol"}
    ]}
  ]
}
